Reference: patent US20200283521A1 (GRANULAR THERAPEUTICS, published 2020)
Changes are numbered by the printed parent chain. One block for each binder: values may come before it.

Experiments:
[1] = target: T1, cynomolgus monkey C-KIT-Fc (cynomolgus monkey); experiment: direct titration ELISA on coated C-KIT-Fc, IgG1 format
T1 construct: also called cyno C-KIT-Fc
Description: Direct titration ELISA for IgG binding to human and cyno C-KIT-Fc proteins.
To coat Greiner Bio-One High bind ELISA plates, target proteins were diluted to 1 μg/ml in carbonate buffer and added at 100 μl per well, at 4° C., o/n. Coated plates were washed 3× with PBS pH7.4, blocked with 1% BSA in PBS (380 μl/well) for 1 hr at RT, then washed 3× with PBS-Tween 20 (PBST). C-KIT antibodies (100 μl/well; diluted in PBST) were then added and then incubated 1 hr at RT. Plates were then washed 3× with PBST and goat anti-human kappa chain-HRP added (100 μl/well) at RT, for 1 hr. Plates were then washed 3× with PBST and twice with PBS before the addition of 100 μl TMB per well. Reactions were stopped by adding 100 μl 2M H₂SO₄/well and OD was read on a plate reader at 450 nm.

[2] = target: T2, hLTBR-Fc (human, UniProt P36941); experiment: direct ELISA on coated protein, IgG1
T2 construct: Fc fusion; member of the panel m9
T2 sequence (P36941 28-227 limits assumed): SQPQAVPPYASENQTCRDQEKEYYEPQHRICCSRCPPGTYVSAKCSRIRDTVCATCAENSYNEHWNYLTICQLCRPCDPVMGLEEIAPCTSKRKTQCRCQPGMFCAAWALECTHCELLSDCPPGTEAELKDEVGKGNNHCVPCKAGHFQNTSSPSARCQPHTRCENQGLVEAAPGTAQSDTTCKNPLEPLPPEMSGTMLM

[3] = target: T3, hEpCAM-Fc (human, UniProt P16422); experiment: direct ELISA on coated protein, IgG1
T3 construct: Fc fusion; member of the panel m9
T3 sequence (looked up): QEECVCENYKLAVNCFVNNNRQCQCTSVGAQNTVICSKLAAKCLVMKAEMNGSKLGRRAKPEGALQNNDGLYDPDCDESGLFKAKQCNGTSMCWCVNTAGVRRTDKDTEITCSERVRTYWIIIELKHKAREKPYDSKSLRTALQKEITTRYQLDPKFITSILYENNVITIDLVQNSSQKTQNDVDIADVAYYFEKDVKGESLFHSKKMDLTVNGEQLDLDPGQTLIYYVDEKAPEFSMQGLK

[4] = target: T4, hDR3-Fc (human, UniProt Q93038); experiment: direct ELISA on coated protein, IgG1
T4 construct: Fc fusion; member of the panel m9
T4 sequence (looked up): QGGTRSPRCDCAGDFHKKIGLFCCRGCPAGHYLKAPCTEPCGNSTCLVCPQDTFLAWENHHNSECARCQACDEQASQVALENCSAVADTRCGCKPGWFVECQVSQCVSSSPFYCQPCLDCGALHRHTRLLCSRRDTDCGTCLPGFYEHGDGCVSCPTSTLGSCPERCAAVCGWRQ

[5] = target: T5, EGFR (human, UniProt P00533); experiment: cell array, transfected fixed HEK293 cells
T5 construct: expressed in transfected HEK293 cells
Description: (§1) Transfection of all plasmids was confirmed by screening for the co-encoded marker ZS green (FIG. 13A).
(§2) Primary hits (duplicate spots) were identified by analysing fluorescence (AF647 and ZsGreenl) on ImageQuant. Vectors encoding all hits were sequenced to confirm their correct identities. […] Slides were analysed as above.

[6] = target: T6, SLMAP (human, UniProt Q14BN4); experiment: cell array, transfected fixed HEK293 cells
T6 construct: expressed in transfected HEK293 cells
T6 sequence (looked up): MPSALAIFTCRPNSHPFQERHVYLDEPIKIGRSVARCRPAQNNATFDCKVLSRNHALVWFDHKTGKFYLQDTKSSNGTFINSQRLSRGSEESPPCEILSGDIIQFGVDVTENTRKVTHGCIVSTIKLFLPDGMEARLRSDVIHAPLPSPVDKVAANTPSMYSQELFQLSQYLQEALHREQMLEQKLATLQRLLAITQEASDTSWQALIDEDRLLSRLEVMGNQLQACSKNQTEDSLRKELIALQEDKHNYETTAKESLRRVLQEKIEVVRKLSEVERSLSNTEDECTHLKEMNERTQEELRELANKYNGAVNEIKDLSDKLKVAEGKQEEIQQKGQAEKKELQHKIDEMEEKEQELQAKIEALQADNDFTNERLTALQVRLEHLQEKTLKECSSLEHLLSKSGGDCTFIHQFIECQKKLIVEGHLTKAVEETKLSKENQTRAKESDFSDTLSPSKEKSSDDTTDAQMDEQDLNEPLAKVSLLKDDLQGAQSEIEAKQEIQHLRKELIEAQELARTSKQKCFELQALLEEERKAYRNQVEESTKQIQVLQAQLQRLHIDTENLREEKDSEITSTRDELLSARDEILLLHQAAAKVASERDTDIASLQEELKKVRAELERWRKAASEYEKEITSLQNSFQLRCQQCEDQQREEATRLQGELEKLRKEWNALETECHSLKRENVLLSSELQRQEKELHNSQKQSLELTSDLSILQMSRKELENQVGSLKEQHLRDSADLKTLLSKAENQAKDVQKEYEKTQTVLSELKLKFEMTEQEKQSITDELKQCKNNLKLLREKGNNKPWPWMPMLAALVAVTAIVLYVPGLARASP
Description: as §1, §2

[7] = target: T7, MSN (human, UniProt P26038); experiment: cell array, transfected fixed HEK293 cells
T7 construct: expressed in transfected HEK293 cells
T7 sequence (P26038 2-577 limits assumed): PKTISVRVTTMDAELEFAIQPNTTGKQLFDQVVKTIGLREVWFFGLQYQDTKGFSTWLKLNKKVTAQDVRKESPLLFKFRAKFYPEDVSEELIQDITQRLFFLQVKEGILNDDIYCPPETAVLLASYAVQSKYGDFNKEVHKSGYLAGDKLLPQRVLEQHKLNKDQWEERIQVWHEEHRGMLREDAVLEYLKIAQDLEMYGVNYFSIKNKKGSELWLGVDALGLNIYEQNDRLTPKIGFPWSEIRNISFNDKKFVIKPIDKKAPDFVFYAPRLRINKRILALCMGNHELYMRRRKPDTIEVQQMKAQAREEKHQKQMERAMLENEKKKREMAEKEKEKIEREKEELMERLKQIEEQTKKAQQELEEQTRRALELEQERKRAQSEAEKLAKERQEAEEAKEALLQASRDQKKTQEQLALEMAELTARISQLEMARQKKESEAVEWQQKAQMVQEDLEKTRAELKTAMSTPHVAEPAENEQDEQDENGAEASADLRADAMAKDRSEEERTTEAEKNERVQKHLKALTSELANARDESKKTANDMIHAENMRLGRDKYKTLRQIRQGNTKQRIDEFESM
Description: as §1, §2

[8] = target: T8, BAIAP2L2 (human, UniProt Q6UXY1); experiment: cell array, transfected fixed HEK293 cells
T8 construct: expressed in transfected HEK293 cells
T8 sequence (looked up): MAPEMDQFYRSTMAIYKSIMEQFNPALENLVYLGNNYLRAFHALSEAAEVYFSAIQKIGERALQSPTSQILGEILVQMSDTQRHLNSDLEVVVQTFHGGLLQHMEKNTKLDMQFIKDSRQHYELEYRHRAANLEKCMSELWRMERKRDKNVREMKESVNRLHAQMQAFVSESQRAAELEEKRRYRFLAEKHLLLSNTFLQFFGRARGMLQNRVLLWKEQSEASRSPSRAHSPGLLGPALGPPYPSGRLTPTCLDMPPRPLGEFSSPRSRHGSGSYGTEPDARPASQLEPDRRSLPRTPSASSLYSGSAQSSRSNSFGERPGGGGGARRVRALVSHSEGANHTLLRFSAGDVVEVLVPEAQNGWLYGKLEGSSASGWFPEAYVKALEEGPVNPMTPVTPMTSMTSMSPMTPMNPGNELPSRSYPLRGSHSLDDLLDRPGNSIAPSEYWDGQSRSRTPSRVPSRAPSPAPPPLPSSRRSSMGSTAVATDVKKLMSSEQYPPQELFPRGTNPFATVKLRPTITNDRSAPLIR
Description: as §1, §2

[9] = target: T9, EDN1 (human, UniProt P05305); experiment: cell array, transfected fixed HEK293 cells
T9 construct: expressed in transfected HEK293 cells
T9 sequence (looked up): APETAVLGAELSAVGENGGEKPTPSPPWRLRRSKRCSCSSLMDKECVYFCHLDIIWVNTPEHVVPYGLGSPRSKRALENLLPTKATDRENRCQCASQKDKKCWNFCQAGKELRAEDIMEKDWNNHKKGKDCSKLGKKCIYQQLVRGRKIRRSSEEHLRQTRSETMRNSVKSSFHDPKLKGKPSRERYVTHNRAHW
Description: as §1, §2

EC50 (read off the curve) [1]: ~0.1 µg/mL
B1: MH5, human IgG1 (antibody, V domains shown)
VH: QVQLVQSGAEVKKPGASVKVSCKASGYTFTDYYMNWVRQAPGQGLEWMGRIYPGSGNTYYAQKFQGRVTMTRDTSTSTVYMELSSLRSEDTAVYYCARGVYYYDYWGQGTLVTVSS
VL: DIQMTQSPSSLSASVGDRVTITCRASQGIRTNLAWFQQKPGKAPKSLIYSASSLQSGVPSRFSGSGSGTDFTLTISSLQPEDFATYYCQQYANYPRTFGGGTKVEIK
notes: IgG1; also called C-KIT-MH5; C-KIT-MHS

binding result [2]: no binding (tested: 1 µg/ml)
binding result [3]: no binding (tested: 1 µg/ml)
binding result [4]: no binding (tested: 1 µg/ml)
binding result [5]: no binding (tested: 2 µg/ml)
binding result [6]: no binding (tested: 2 µg/ml)
binding result [7]: no binding (tested: 2 µg/ml)
binding result [8]: no binding (tested: 2 µg/ml)
binding result [9]: no binding (tested: 2 µg/ml)
B2: MH1, human IgG1 (antibody, V domains shown)
VH: B1 VH
VL: B1 VL with S50A, A92N, N93S
notes: IgG1; also called IgG1-MH1
